Test results published in patent US20240301076A1 (CEPHALON, published 2024).

T1: human CXCR2 (human, UniProt P25025 1-360)
T1 construct: also called CXC chemokine receptor 2; hCXCR2
T1 sequence: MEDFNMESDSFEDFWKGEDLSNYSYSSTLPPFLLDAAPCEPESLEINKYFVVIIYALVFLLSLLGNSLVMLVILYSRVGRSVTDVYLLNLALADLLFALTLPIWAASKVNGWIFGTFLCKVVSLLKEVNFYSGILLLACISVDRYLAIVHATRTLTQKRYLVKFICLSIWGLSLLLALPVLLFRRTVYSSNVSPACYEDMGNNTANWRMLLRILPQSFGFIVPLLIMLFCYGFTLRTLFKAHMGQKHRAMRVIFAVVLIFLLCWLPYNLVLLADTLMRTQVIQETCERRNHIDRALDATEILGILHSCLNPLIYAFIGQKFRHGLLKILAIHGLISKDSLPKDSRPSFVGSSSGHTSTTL

T2: human CXCR1 (human, UniProt P25024 1-350)
T2 sequence: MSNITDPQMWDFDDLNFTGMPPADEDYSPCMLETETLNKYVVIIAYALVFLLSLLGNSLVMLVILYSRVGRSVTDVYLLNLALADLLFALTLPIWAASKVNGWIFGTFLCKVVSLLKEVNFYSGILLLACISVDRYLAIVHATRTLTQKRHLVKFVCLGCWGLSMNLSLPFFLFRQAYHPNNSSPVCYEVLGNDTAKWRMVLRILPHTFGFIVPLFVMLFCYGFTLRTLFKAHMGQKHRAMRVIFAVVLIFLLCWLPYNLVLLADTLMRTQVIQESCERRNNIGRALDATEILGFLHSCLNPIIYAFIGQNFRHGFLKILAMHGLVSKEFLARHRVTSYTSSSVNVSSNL


Experiments:
human CXCR2 [1] = target: T1, human CXCR2; test: flow cytometry, transfected Expi293F cells
Method: (§1) Harvested cells were resuspended in FACS buffer (1×PBS+0.5% (w/v) bovine serum albumin (BSA)+2 mM EDTA pH 7.2). Approximately 2×10⁵ cells were added per well in a 96-well round-bottomed plate. Cells were pelleted by centrifugation at 400 g for 5 mins at 4° C. and supernatants discarded. 25 μL of each test antibody or control antibody was added to the cells and incubated for 30 minutes at 4° C. Cells were washed twice in 100 μL FACS buffer followed by centrifugation at 400 g for 5 mins at 4° C.
(§2) For detection, 50 μL of secondary antibody (Table 2) was added to relevant samples. Commercially available antibodies that bound to transfected CXCR family members were used as positive controls to ensure that the cells were expressing the receptors. Cells were washed twice in 200 μL of FACS buffer followed by centrifugation at 400 g for 5 mins at 4° C. Before sample acquisition, cells were resuspended in 100 μL of FACS buffer. Samples were acquired using the high throughput sampler on a FACSCanto™ II cytometer (Beckton-Dickinson).
(§3) These antibody variable regions were then generated by gene synthesis and subcloned into mammalian expression vectors as described in General Methods. Antibodies were produced by co-expression of heavy and light chain plasmids in Expi293F™ cells and purified by protein A column chromatography as described in General Methods. Where several heavy and/or light chains were identified from the same hybridoma cells, each heavy chain was paired with each light chain and the resulting antibodies given suffix a, b, c, etc. Purified antibodies were desalted into Sorensen's PBS pH 5.8 and tested by flow cytometry for binding to Expi293F™ cells transfected with human CXCR2 or human CXCR1 and mock transfected Expi293F™ cells.

human CXCR1 = target: T2, human CXCR1; test: flow cytometry, transfected Expi293F cells
Method: as §1, §2, §3

human CXCR2 [2] = target: T1, human CXCR2; test: flow cytometry, CXCR2-transfected Expi293F cells
Method: as §1, §2
A further six heavy chain combinational variants comprising four or more amino acid substitutions were produced as provided in Table 12. […] Each heavy chain was co-expressed with light chain c (SEQ ID NO:110) to produce an antibody variant. Antibodies were purified and tested for CXCR2 binding activity as described in General Methods.

Binder | binding result (human CXCR2 [1]) | binding result (human CXCR1) | EC50 (human CXCR2 [2]) | Max binding (MFI Percent of 4A8 WT) (human CXCR2 [2]) | Max binding (MFI) (human CXCR2 [2])
BKO-4F10 (antibody, human IgG4 S228P, lambda, recombinant human IgG4 S228P, lambda) heavy: not shown light: QSALTQPASVSGSPGQSITISCTGTSSDVGGYNYVSWYQQHPGKAPKLMIYDVSNRPSGISNRFSGSKSGNTASLTISGLQAEDEADYYCSSYTSSSTWVFGGGTKLTVLGQPKAAPSVTLFPPSSEELQANKATLVCLISDFYPGAVTVAWKADSSPVKAGVETTTPSKQSNNKYAASSYLSLTPEQWKSHRSYSCQVTHEGSTVEKTVAPTECS | binds | no binding | – | – | –
BKO-5G6_c (antibody, human IgG4 S228P, lambda, recombinant human IgG4 S228P, lambda) heavy: not shown light: QSALTQPASVSGSPGQSITISCTGTSSDVGGYNYVSWYQQHPGKAPKLMIYDVSNRPSGISNRFSGSKSGNTASLTISGLQAEDEADYYCSSYTSSSTWVFGGGTTLTVLGQPKAAPSVTLFPPSSEELQANKATLVCLISDFYPGAVTVAWKADSSPVKAGVETTTPSKQSNNKYAASSYLSLTPEQWKSHRSYSCQVTHEGSTVEKTVAPTECS | binds | no binding | – | – | –
BKO-10G10 (antibody, human IgG4 S228P, lambda, V domains shown, recombinant human IgG4 S228P, lambda) VH: QLQLQESGPGLVKPSETLSLTCTVSGGSIRRSSYYWGWIRQPPGKGLEWIGSFYNSGNTYYKPSLKSRVAISVDTPKNQFSLKLSSVTAADTAVYYCARGYSSGGFDPWGQGTLVTVSS VL: QSALTQPASVSGSPGQSITISCTGTSSDVGGYNYVSWCQQHPGKAPKIMIFDVSNRPSGVSNRFSGSKSGNTASLTISGLQAEDEADYYCSSYTSSSTWVFGGGTRLTVLG | binds | no binding | – | – | –
BKO-4A8 combinatorial variant 102c (antibody, human IgG4 S228P, lambda, V domains shown, IgG4 S228P, lambda) VH: EVQLLESGGGLVQPGGSLRLSCAASGFTFSSSTQSWVRQPPGKGLEWVSAISGRGRSTYYADSVKGRFTISRDNSKNTLYLQMNSLRAEDTAVYYCAIQEGYWGQGILVTVSS VL: QSALTQPPSASGSPGQSVTISCIGTSSDVGGYNYVSWYQQHPGKAPKLMIYEVSKRPSGVPDRFSGSKSGNTASLTVSGLQAEDEADYYCSSYAGSNNFGVFGGGTKLTVLG | – | – | 8.7 nM | 53% | 33000 MFI
BKO-9A8 (antibody, human IgG4 S228P, lambda, V domains shown, recombinant human IgG4 S228P, lambda) VH: EVQLLESGGGLVQTGGSLRLSCAASGFTFSSNTMSWVRQAPGKGLEWVSAISGSGGRTYYVDSVKGRFTISRDNSKNTLYLQMHSLRAEDTAVYYCAIQLGSWGQGILVTVSS VL: QSALTQPPSASGSPGQSVTISCTGTSSDVGAYNYVSWYQQHPGKAPKLMIYEVTKRPSGVPDRFSGSKSGNTASLTVSGLQAEDEADYYCSSYAGNNNFGVFGGGTKLTVLG | binds | no binding | – | – | –
BKO-7H8_b (antibody, human IgG4 S228P, lambda, V domains shown, recombinant human IgG4 S228P, lambda) VH: EVQLLESGGGLVQPGGSLRLSCAASGYTFTSSTMSWVRQAPGKGLEWVTAISGRGGRTYYADSVKGRFTISRDNSKNTLYLQMNSLRAEDTAVYYCAIQLGNWGQGILVTVSS VL: QSALTQPPSASGSPGQSVTISCTGTSSDIGGYNYVSWYQQHPGKAPKLVIYEVNMRPSGVPARFSGSKSGNTASLTVSGLQAEDEADYYCSSYAGNDNFGVFGGGTKLSVLG | binds | no binding | – | – | –
BKO-3F4 (antibody, human IgG4 S228P, lambda, V domains shown, recombinant human IgG4 S228P, lambda) VH: EVQLLESGGGLVQPGGSLRLSCAASGLTFSSYAMSWVRQAPGKGLEWVSAISGSGGKIYYADSVKGRFTISRDNSKNTLYLQMNSLRAEDTAVYYCAIQVGYWGQGTLVTVSS VL: QSALTQPPSASGSPGQSVTMSCTGTSSDVGGYNYVTWYQQHPGKAPKLMIYEVSKRPSGVPARFSGSKSGNTASLTVSGLQAEDEADYYCSSYAGPNNFGVFGGGTKLTVLG | binds | no binding | – | – | –
BKO-5G11 (antibody, human IgG4 S228P, lambda, V domains shown, recombinant human IgG4 S228P, lambda) VH: EVQLLESGGGLVQPGGSLRLSCAVSGFTFSNYAMTWVRQAPGKGLEWVSAISGRGSRTYYADSVKGRFTISRDTSKNTLYLQMNSLRAEDTAVYYCAKMDYWGQGTLVTVSS VL: QSALTQPPSASGSPGQSVTISCTGTSSDVGGYNYVSWYQQHPGKAPKLMIFEVSKRPSGVPDRFSGSKSGNTASLTVSGLQAEDEADYYCSSYAGSNNFGVFGGGTKLTVLG | binds | no binding | – | – | –
BKO-7G10_a (antibody, human IgG4 S228P, lambda, V domains shown, recombinant human IgG4 S228P, lambda) VH: EVQLLESGGGLVQPGGSLRLSCAVSGFTFSNYAMTWVRQAPGKGLEWVSAISGRGSRTYYADSVKGRFTISRDTSKNTLYLQMNSLRAEDTAVYYCAKMDYWGQGTLVTVSS VL: QSALTQPPSASGSPGQSVTISCTGTSSDVGGYNYVSWYQQHPGKAPKLMIFEVSKRPSGVPDRFSGSKSGNTASLTVSGLQAEDEADYYCSSYAGSNNFGVFGGGTKLTVLG | binds | no binding | – | – | –

The remaining lines, values ahead:

binding result (human CXCR2 [1]) | binding result (human CXCR1) | EC50 (human CXCR2 [2]) | Max binding (MFI Percent of 4A8 WT) (human CXCR2 [2]) | Max binding (MFI) (human CXCR2 [2]) | Binder
binds | no binding | – | – | – | BKO-8B6 (antibody, human IgG4 S228P, lambda, V domains shown, recombinant human IgG4 S228P, lambda) VH: EVQLLESGGGLVQPGGSLRLSCAASGFTFSSNAMSWVRQAPGKGLEWVSAISNSGRSTYYADSVKGRFTISRDSSKNTLYLLMNSLRAEDSAVYYCAIKLGYWGQGSLVTVSS VL: QSALTQPPSASGSPGQSVTISCTGTSSDVGGYNYVSWYQQHPGKAPKLMMYEVSKRPSGVPDRFSGSKSGNTASLTVSGLQAEDEADYYCSSYAGSDNFGVFGGGTRLTVLG
binds | no binding | – | – | – | BKO-8H8_b (antibody, human IgG4 S228P, lambda, V domains shown, recombinant human IgG4 S228P, lambda) VH: EVQLLESGGGLVQPGGSLRLSCAASGLTVSSYAMSWVRQAPGKGLEWVSAISGSGGKIYYADSVKGRFTISRDNSKNTLYLQMNSLSAEDTAVYYCAIQVGYWGQGTLVTVSS VL: QSALTQPPSASGSPGQSVTMSCTGTSSDVGGYNYVTWYQQHPGKAPKLVIYEVSKRPSGVPVRFSGSKSGNTASLTVSGLQAEDEADYYCSSYAGPNNFGIFGGGTKLTVLG
binds | no binding | – | – | – | BKO-5E8 (antibody, human IgG4 S228P, lambda, V domains shown, recombinant human IgG4 S228P, lambda) VH: EVQLLESGGGLVQPGGSLRLSCAASGFTFSSYAMSWVRQAPGRGLEWVSAIRGSGAGTYYADSMKGRFTISRDNSKDTLYLLMNSLRAEDTAVYYCSKLEAVSGTGKYFQHWGQGTLVTVSS VL: SYELTQPPSVSVSPGQTANITCSGDTLGDKFACWYQQKPGQSPVLVIYQDTKRPSGIPERFSGSKSGITATLTISGTQAMDEADFYCQAWNSRGVVFGGGTRLTVLG
binds | no binding | – | – | – | BKO-6A1_b (antibody, human IgG4 S228P, lambda, V domains shown, recombinant human IgG4 S228P, lambda) VH: QVQLKQWGAGLLKPSETLSLTCAVYGGSFSGYYWTWIRQPPGKGLEWIGEINHSGSTNYNPSLKSRVTMSVDTSKNQFSLKLRSVTAADTAVYYCARGEVRGLITLYWYFDVWGRGSLVTVSS VL: SSELTQDPAVSVALGQTVRITCQGDSLRSYYASWYQQKPGQAPVLVIYGKNNRPSGIPDRFSGSSSGNTASLTITGAQAEDEADYYCNSRDSSGNHVVFGGGTKLTVLG
binds | no binding | – | – | – | BKO-8C4 (antibody, human IgG4 S228P, lambda, V domains shown, recombinant human IgG4 S228P, lambda) VH: QLQLQESGPGLVKPSETLSLTCTVSGGSIRTSSYYWGWIRQPPGKGLEYIGSIYYSGTTYYNPSLKSRVTMSVDTSKNQFSLKLSSVTAADTAVYYCARHGRVREVPPFDYWGQGTLVTVSS VL: SSELTQDPAVSVALGQTVRITCQGDSLRYYYASWYQQKPGQAPVLVIYDENSRPSGIPDRFSGSSSGNTASLRITGTQAEDEADYYCNSRDTSGNHWAFGGGTKLTVLG
binds | no binding | – | – | – | BKO_7C11 (antibody, human IgG4 S228P, lambda, V domains shown, recombinant human IgG4 S228P, lambda) VH: QVQLQQWGAGLLKPSETLSLTCAVYGGSFSGYYWSWIRQPPGKGLEWIGEINHSRNTNYNPSLKSRVTISVDTSKNQFSLKLSSVTAADTAVYYCARGEVRGVFTLYWYFDVWGRGTLVTVSS VL: SSELTQGPAVSVALGQTVRITCQGNSLRFYYASWYQQRPGQAPILVIYDKNNRPSGIPDRFSGSSSGNTASLTITGAQAEDEADYYCNSRDSSGYYMIFGGGTKLTVLG
